Consider 38 substances from the Human Domainome abundance scans (Beltran et al. 2025).

± gives the uncertainty stated by the source.

The nature of the data set: abundance fitness (aPCA) (normalised: wild type 0, dead -1); higher = more abundant; growth selection in yeast, the domain comes from the species named. Particulars: Homo sapiens.
“Scaffold attachment factor B1 I77L, Q15424” registered an abundance fitness of -0.227 ± 0.064.
The value for “Scaffold attachment factor B1 I77M, Q15424” was -0.305 ± 0.087; that for “Scaffold attachment factor B1 I77N, Q15424” was -0.235 ± 0.073.
The value for “Scaffold attachment factor B1 I77P, Q15424” was -0.381 ± 0.096; that for “Scaffold attachment factor B1 I77Q, Q15424” was -0.262 ± 0.077.
The value for “Scaffold attachment factor B1 I77R, Q15424” was -0.156 ± 0.055; that for “Scaffold attachment factor B1 I77S, Q15424” was -0.08 ± 0.051.
In the case of “Scaffold attachment factor B1 I77V, Q15424”, the abundance fitness is -0.163 ± 0.066.
Take “Scaffold attachment factor B1 I77W, Q15424”: the abundance fitness was -0.119 ± 0.053.
On to “Scaffold attachment factor B1 K45A, Q15424”, for which the abundance fitness was -0.013 ± 0.27.
“Scaffold attachment factor B1 K45R, Q15424” displayed an abundance fitness of 0.218 ± 0.2.
With “Scaffold attachment factor B1 K45V, Q15424”, the abundance fitness was -0.929 ± 0.46.
The value for “Scaffold attachment factor B1 K54A, Q15424” was -0.181 ± 0.061.
The value for “Scaffold attachment factor B1 K54C, Q15424” was -0.361 ± 0.063.
The value for “Scaffold attachment factor B1 K54D, Q15424” was -0.329 ± 0.075.
In turn, “Scaffold attachment factor B1 K54E, Q15424” returned an abundance fitness of -0.207 ± 0.079.
The value for “Scaffold attachment factor B1 K54F, Q15424” was -0.249 ± 0.062.
Regarding “Scaffold attachment factor B1 K54G, Q15424”, the abundance fitness is -0.234 ± 0.05.
The value for “Scaffold attachment factor B1 K54H, Q15424” was -0.401 ± 0.11.
The value for “Scaffold attachment factor B1 K54I, Q15424” was -0.271 ± 0.077; that for “Scaffold attachment factor B1 K54L, Q15424” was -0.28 ± 0.048.
The value for “Scaffold attachment factor B1 K54M, Q15424” was -0.443 ± 0.087; that for “Scaffold attachment factor B1 K54N, Q15424” was -0.444 ± 0.075.
As to “Scaffold attachment factor B1 K54P, Q15424”, the abundance fitness is -0.25 ± 0.082.
“Scaffold attachment factor B1 K54Q, Q15424”: the abundance fitness was -0.115 ± 0.066.
The substance “Scaffold attachment factor B1 K54R, Q15424” yielded an abundance fitness of -0.063 ± 0.047.
The value for “Scaffold attachment factor B1 K54S, Q15424” was -0.259 ± 0.072; that for “Scaffold attachment factor B1 K54T, Q15424” was -0.189 ± 0.057.
In the case of “Scaffold attachment factor B1 K54V, Q15424”, the abundance fitness is -0.221 ± 0.049.
The value for “Scaffold attachment factor B1 K54W, Q15424” was -0.255 ± 0.056.
The value for “Scaffold attachment factor B1 K54Y, Q15424” was -0.157 ± 0.059; that for “Scaffold attachment factor B1 K62A, Q15424” was -0.073 ± 0.052; that for “Scaffold attachment factor B1 K62C, Q15424” was -0.27 ± 0.057.
“Scaffold attachment factor B1 K62D, Q15424” showed an abundance fitness of -0.403 ± 0.089.
The value for “Scaffold attachment factor B1 K62E, Q15424” was -0.287 ± 0.053.
“Scaffold attachment factor B1 K62F, Q15424” had an abundance fitness of -0.366 ± 0.078.
The value for “Scaffold attachment factor B1 K62G, Q15424” was -0.191 ± 0.048; that for “Scaffold attachment factor B1 K62H, Q15424” was -0.211 ± 0.066.
